Measurements as given in patent US20050260730A1 (published 2005).
Non-standard residues stand in square brackets, D forms with d. Phe(4-F) = N[C@@H](Cc1ccc(F)cc1)C(=O)O

B1: H-Arg-Arg-Leu-(p-F-Phe)-NH2 (peptide)
peptide: H-RRL[Phe(4-F)]-NH2
SMILES: CC(C)C[C@H](NC(=O)[C@H](CCCNC(=N)N)NC(=O)[C@@H](N)CCCNC(=N)N)C(=O)N[C@@H](Cc1ccc(F)cc1)C(N)=O
B2: Ac-Arg-Arg-Leu-Asn-Phe-NH2 (peptide)
peptide: Ac-RRLNF-NH2

Biological target: CDK2/cyclin A complex (human, UniProt P24941 1-298; P20248 173-432)
Test: cell-based or functional assay

| Binder | CDK2/cyclin A kinase activity IC50 [µM] |
| --- | --- |
| B1 | 50 |
| B2 | > 50 |
